pKd: −log10 of the molar value.
Target: recombinant human MXRA8-Fc fusion protein (UniProt Q9BRK3)
Details: 37 °C; n = 2; parent: est. 19; read off a plot

Substance | pKd
Ross River virus T48, CPER-recovered wild type, purified virus (E1/E2 envelope glycoproteins on the virion) E2:H64A | 7.21
Ross River virus T48, CPER-recovered wild type, purified virus (E1/E2 envelope glycoproteins on the virion) E2:A71D | 6.96
Ross River virus T48, CPER-recovered wild type, purified virus (E1/E2 envelope glycoproteins on the virion) E1:P226A | 7.70
Ross River virus T48, CPER-recovered wild type, purified virus (E1/E2 envelope glycoproteins on the virion) E1:N141Q | 7.21
Ross River virus T48, CPER-recovered wild type, purified virus (E1/E2 envelope glycoproteins on the virion) E1:S98A | 7.52

Reference: paper PMC8187723
